What was measured:
[1] = molecular target: T1, mCherry-tagged DIC1a (dynein intermediate chain 1, isoform a), wild-type (UniProt Q63100 1-643); assay: co-IP; COS cells cotransfected with mCherry-tagged DIC1a (wild-type or WD mutants) and HA-tagged KLC1 or KLC2; IP with anti-mCherry; western blotting with anti-DIC and anti-HA; details: partners not purified
T1 construct: cytoplasmic dynein intermediate chain 1, neuron-specific isoform DIC1a with both alternatively spliced regions (AS loop 1 with WD1, AS loop 2 with WD2); also called WT DIC1a; source: COS cells, cotransfected, in lysate

[2] = molecular target: T2, WD1^pept, TAMRA-conjugated 11-amino-acid peptide centered on the first tryptophan motif of DIC1 (TAMRA-conjugated (position not given)); assay: fluorescence polarisation; TAMRA-conjugated DIC1 tryptophan-motif peptides with purified KLC1 or KLC2 TPR domain; KD values determined at 150 mM NaCl; details: both partners purified
T2 construct: 11 residues of dynein intermediate chain 1 centered on the first tryptophan motif (WD1) in AS loop 1; also called WD1 peptide; peptide of the first DIC1 tryptophan motif

T1 sequence (Q63100 whole entry, canonical isoform): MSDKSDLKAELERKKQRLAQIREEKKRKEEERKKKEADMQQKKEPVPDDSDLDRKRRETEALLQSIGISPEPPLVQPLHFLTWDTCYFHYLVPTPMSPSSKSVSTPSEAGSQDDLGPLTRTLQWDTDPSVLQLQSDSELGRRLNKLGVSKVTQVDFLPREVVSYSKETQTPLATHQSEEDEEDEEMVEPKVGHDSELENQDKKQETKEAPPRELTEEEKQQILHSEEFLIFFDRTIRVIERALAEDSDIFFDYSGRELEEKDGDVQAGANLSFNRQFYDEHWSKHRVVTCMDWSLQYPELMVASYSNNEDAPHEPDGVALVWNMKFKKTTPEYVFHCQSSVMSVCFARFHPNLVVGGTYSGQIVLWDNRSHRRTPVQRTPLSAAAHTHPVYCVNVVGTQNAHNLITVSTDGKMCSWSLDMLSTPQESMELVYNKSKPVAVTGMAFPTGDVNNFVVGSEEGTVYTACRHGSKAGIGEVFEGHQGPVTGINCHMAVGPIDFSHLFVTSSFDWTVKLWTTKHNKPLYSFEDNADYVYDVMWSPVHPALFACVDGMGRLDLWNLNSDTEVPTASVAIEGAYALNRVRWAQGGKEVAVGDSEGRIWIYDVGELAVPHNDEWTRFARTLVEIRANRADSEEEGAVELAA

Binder | fold co-immunoprecipitated relative to KLC1 [1] [fold] | Kd [2] [µM]
HA-tagged KLC2 (kinesin light chain 2) (natural protein, UniProt O88448 1-599, looked up, kinesin light chain 2; source: COS cells, cotransfected, in lysate) MATMVLPREEKLSQDEIVLGTKAVIQGLETLRGEHRALLAPLASHEAGEAEPGSQERCLLLRRSLEAIELGLGEAQVILALSSHLGAVESEKQKLRAQVRRLVQENQWLREELAGTQQKLQRSEQAVAQLEEEKQHLLFMSQIRKLDEMLPQEEKGDVPKDSLDDLFPNEDEQSPAPSPGGGDVAAQHGGYEIPARLRTLHNLVIQYASQGRYEVAVPLCKQALEDLEKTSGHDHPDVATMLNILALVYRDQNKYKDAAHLLNDALAIREKTLGKDHPAVAATLNNLAVLYGKRGKYKEAEPLCKRALEIREKVLGKFHPDVAKQLSNLALLCQNQGKAEEVEYYYRRALEIYATRLGPDDPNVAKTKNNLASCYLKQGKYQDAETLYKEILTRAHEKEFGSVNGENKPIWMHAEEREESKDKRRDRRPMEYGSWYKACKVDSPTVNTTLRTLGALYRPEGKLEAAHTLEDCASRSRKQGLDPASQTKVVELLKDGSGRGHRRGSRDVAGPQSESDLEESGPAAEWSGDGSGSLRRSGSFGKLRDALRRSSEMLVRKLQGGGPQEPNSRMKRASSLNFLNKSVEEPVQPGGRVFLTAAL | 5 | 
KLC1^TPR, purified TPR domain of KLC1 (domain or fragment) YEIPARLRTLHNLVIQYASQGRYEVAVPSCKQALEDLEKTSGHDHPDVATMLNILALVYRDQNKYKDAANLLNDALAIREKTLGRDHPAVAATLNNLAVLYGKRGKYKEAEPLCKRALEIREKVLGKDHPDVAKQLNNLALLCQNQGKYEEVEYYYQRALGIYQTKLGPDRTPNVAKTKNNLASCYLKQGKFKQAETLYKEILTRAHEAEFGSVDDENKPIWMHAEEREECKGKQKDGSAFGEYGGWYKACKVDSPTVTTTLKNLGALYRRQGKFEAAETLEEAAMRSRKQGL |  | 7.58 ± 0.61
